B1: ADP-ribosylation factor 6 (Mus musculus), P62331 (parent)
chain: MGKVLSKIFGNKEMRILMLGLDAAGKTTILYKLKLGQSVTTIPTVGFNVETVTYKNVKFNVWDVGGQDKIRPLWRHYYTGTQGLIFVVDCADRDRIDEARQELHRIINDREMRDAIILIFANKQDLPDAMKPHEIQEKLGLTRIRDRNWYVQPSCATSGDGLYEGLTWLTSNYKS
partner: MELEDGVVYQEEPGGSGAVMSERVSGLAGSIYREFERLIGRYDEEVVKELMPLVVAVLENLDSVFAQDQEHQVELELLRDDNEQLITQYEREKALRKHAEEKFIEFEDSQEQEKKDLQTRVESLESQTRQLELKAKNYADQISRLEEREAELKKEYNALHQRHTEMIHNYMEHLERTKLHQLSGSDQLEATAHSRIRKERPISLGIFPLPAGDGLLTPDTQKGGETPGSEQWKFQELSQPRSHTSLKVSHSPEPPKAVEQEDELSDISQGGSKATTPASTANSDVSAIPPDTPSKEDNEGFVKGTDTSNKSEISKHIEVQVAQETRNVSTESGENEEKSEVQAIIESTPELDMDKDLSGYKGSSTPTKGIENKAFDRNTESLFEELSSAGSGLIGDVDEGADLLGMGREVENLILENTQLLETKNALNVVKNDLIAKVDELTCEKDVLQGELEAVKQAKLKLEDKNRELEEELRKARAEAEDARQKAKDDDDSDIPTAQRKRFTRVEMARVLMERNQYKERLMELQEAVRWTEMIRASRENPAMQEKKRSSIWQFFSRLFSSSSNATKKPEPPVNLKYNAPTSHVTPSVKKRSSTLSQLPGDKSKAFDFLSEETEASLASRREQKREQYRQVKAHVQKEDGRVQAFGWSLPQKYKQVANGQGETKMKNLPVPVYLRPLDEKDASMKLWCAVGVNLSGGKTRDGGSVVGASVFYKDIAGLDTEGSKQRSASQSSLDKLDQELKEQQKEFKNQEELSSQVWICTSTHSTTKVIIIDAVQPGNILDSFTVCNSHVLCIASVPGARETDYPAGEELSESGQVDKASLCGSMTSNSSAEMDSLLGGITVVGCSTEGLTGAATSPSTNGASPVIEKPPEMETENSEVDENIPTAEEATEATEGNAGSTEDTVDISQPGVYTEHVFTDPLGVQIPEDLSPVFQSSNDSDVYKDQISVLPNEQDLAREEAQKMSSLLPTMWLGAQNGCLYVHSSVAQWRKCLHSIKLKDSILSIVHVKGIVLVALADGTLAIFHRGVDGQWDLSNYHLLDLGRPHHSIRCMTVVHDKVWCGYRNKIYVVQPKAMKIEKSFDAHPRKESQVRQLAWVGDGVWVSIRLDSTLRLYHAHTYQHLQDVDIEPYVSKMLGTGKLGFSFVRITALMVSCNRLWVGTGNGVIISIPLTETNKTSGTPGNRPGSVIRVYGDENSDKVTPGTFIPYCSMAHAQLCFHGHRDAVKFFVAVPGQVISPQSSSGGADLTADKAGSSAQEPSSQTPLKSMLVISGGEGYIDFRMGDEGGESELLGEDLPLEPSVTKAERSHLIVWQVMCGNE
B2: ADP-ribosylation factor 6 (Mus musculus), P62331 (parent)
chain: B1 chain
partner: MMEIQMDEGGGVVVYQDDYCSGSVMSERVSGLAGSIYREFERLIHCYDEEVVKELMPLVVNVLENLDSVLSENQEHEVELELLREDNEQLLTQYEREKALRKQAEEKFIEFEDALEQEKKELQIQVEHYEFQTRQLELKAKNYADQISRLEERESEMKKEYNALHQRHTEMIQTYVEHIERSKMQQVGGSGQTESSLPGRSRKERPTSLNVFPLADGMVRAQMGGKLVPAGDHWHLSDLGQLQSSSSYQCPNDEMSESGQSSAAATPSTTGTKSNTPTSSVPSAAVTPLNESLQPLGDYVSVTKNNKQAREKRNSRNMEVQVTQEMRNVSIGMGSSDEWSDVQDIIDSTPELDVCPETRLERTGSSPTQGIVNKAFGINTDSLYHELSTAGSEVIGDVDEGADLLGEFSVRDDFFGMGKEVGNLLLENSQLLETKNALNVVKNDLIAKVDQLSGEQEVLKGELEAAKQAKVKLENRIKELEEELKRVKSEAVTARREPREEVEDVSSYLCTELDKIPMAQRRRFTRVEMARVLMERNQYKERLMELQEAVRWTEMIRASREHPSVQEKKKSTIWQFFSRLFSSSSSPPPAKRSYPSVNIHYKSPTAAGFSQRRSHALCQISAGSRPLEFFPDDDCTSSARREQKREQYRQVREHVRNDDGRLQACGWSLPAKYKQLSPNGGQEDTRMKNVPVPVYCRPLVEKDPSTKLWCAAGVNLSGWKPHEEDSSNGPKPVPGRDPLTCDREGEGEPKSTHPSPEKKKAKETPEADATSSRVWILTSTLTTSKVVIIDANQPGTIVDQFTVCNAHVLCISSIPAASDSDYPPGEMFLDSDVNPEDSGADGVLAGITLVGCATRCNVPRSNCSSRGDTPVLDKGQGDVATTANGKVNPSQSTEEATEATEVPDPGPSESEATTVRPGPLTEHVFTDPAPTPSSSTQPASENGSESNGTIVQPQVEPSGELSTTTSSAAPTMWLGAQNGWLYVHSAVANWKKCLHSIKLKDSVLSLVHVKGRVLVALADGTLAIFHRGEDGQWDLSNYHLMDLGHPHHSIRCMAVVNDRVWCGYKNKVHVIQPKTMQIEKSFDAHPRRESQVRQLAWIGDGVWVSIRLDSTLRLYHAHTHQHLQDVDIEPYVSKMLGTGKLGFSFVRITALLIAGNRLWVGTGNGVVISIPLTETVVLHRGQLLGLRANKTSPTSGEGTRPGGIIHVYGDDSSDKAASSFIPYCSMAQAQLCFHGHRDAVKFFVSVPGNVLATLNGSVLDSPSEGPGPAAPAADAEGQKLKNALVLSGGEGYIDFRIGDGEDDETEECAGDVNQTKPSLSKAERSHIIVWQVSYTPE

Variants of: B1
Settings: with jip4_mouse Spag9, Q58A65

Variant | effect of a mutation on the interaction
T27N | disrupting interaction

Variants of: B1
Settings: with jip4_mouse Spag9, Q58A65
Remark: another data set of the same source

Variant | effect of a mutation on the interaction
T27N | decreasing interaction

Variants of: B1
Settings: with jip4_mouse Spag9, Q58A65
Remark: another data set of the same source

Variant | effect of a mutation on the interaction
T53E | disrupting interaction
K58C | disrupting interaction
N60T | disrupting interaction

Variants of: B1
Settings: with jip4_mouse Spag9, Q58A65
Remark: another data set of the same source

Variant | effect of a mutation on the interaction
T53E | decreasing interaction

Variants of: B1
Settings: with jip4_mouse Spag9, Q58A65
Remark: another data set of the same source

Variant | effect of a mutation on the interaction
K58C | decreasing interaction

Variants of: B1
Settings: with jip4_mouse Spag9, Q58A65
Remark: another data set of the same source

Variant | effect of a mutation on the interaction
N60T | decreasing interaction

Variants of: B1
Settings: with jip4_mouse Spag9, Q58A65
Remark: another data set of the same source

Variant | effect of a mutation on the interaction
L19V | decreasing interaction

Variants of: B2
Settings: with jip3_mouse Mapk8ip3, Q9ESN9

Variant | effect of a mutation on the interaction
T27N | decreasing interaction

Variants of: B2
Settings: with jip3_mouse Mapk8ip3, Q9ESN9
Remark: another data set of the same source

Variant | effect of a mutation on the interaction
T27N | disrupting interaction

Variants of: B2
Settings: with jip3_mouse Mapk8ip3, Q9ESN9
Remark: another data set of the same source

Variant | effect of a mutation on the interaction
T53E | disrupting interaction
K58C | disrupting interaction
N60T | disrupting interaction

Variants of: B2
Settings: with jip3_mouse Mapk8ip3, Q9ESN9
Remark: another data set of the same source

Variant | effect of a mutation on the interaction
T53E | decreasing interaction

Variants of: B2
Settings: with jip3_mouse Mapk8ip3, Q9ESN9
Remark: another data set of the same source

Variant | effect of a mutation on the interaction
K58C | decreasing interaction

Variants of: B2
Settings: with jip3_mouse Mapk8ip3, Q9ESN9
Remark: another data set of the same source

Variant | effect of a mutation on the interaction
L19V | decreasing interaction
